# Values quoted from earlier work as cited in US11033606B2, “Composition comprising aflibercept, folinic acid, 5-fluorouracil (5-FU) and irinotecan (FOLFIRI)” (SANOFI, priority 2011, dated 2021).
# Key:
# [1] = tested on: previously treated patients with metastatic colorectal cancer; conditions: pre-treated patients with MCRC
# [2] = tested on: non-small cell lung cancer (NSCLC); conditions: aflibercept added to docetaxel vs docetaxel plus placebo, second-line NSCLC
substance,measurement,setting,value
"aflibercept: fusion protein: VEGFR1 D2 Ig domain fused to VEGFR2 D3 Ig domain, fused to IgG1 Fc domain (SEQ ID No 1)",Tolerability,[1],well tolerated
same,Primary endpoint of improvement in overall survival,[2],did not meet the pre-specified criteria
